# Measured values: patent US20160340421A1 (Regeneron, published 2016)
# Positions count from the first letter of the chain named.
# T1: Human GDF8 homodimer (mature human Growth and Differentiation Factor-8) (human, UniProt O14793 267-375)
# T1 sequence: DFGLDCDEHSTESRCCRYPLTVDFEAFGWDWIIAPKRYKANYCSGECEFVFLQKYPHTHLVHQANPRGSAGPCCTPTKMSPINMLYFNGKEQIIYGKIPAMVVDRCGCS
# T2: hGDF11 homodimer (human, UniProt O95390 299-407)
# T2 sequence (looked up): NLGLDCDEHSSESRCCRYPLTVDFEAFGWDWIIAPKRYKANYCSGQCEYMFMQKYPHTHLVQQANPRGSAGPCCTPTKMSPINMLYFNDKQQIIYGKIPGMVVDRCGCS
# B1: 22-D3 (antibody, V domains shown)
# VH: QVQLVQSGGGLVKPGGSLRLSCAASGFTFSSYSMNWVRQAPGKGLEWVSSISSSSSYIYYADSVKGRFTISRDNAKNSLYLQMNSLRAEDTAVYYCARDRGYTFGVDYWGQGTTVTVSS
# VL: AIQMTQSPSSLSASVGDRVTITCRASQGIRNDLGWYQQKPGKAPKRLIYAASSLQSGVPSRFSGSGSGTEFTLTISSLQPEDFATYYCLQHNSYPYTFGQGTKVEIKR
# B2: 22-E6 (antibody, V domains shown)
# VH: QVQLVQSGPGLVKPSETLSLTCTVSGGSIITYSYYWGWIRQPPGKGLEWIGTIHHSGSTYYNPSLKSRVTISVDTSKNQFSLTLSSVTAADTAVYYCARDYYDSSGYYYNWFDPWGQGTMVTVSS
# VL: B1 VL with Y94S, Y96W
# B3: 22-G10 (antibody, V domains shown)
# VH: QVHLKESGPTLVKPTQTLTLTCTFSGFSLSTSGVGVGWIRQPPGKALEWLALIYWNDDKRYSPSLKSRLTITKDTSKNQVVLTMTNMDPVDTATYYCTHTSRYNWHYGFLDYWGQGTTVTVSS
# VL: AIQMTQSPSSLSASVGDRVTITCRASQGISNYLAWFQQKPGKAPKSLIYAASSLQSGVPSKFSGSGSGTDFTLTISSLQPEDFATYYCQQYNSYPLTFGGGTKVEIKR
# B4: 20B12 (antibody, V domains shown)
# VH: EVQLLESGGGLVQPGGSLRLSCAGSGITFSSYAMSWVRQAPGKGLEWVSAISGNGGTTNYADSVKGRFTISRDNSKNTLYLQMNSLRAEDTAVYYCAKERILTSSWTRYGIMDVWGQGTTVTVSS
# VL: EIVMTQSPATLSMSPGERATLSCRASQSVSSNLAWYQQKPGQAPRLLIYGASTRATGIPARFSGSGSGTEFTLTISSLQSEDFAVYYCQQYNNWPLTFGGGTKLEIK
# B5: 58C8 (antibody, V domains shown)
# VH: EVQLLESGGGLVQPGGSLRLSCAASGFTSITYAMSWVRQAPGKGLEWVSAISVSGTNTYYADSVKGRFTISRDKSKNMLYLQMNSLRAEDTAVYYCAKDLLHNWKYGTFDIWGQGTMVTVSS
# VL: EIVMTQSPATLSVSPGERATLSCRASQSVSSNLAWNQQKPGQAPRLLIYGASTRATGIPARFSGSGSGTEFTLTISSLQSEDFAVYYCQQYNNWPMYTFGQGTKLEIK
# B6: 19F2 (antibody, V domains shown)
# VH: QVQLVESGGGVVQPGRSLRLSCEASGFTFSSSGMHWVRQAPGKGLQWVAVISYDGNNKFYEDSVKGRLTISRDNSNNTLWLQMNSLRVEDTAVYYCAKSGGRVGAAFAYWGQGTLVTVSS
# VL: DIVNTQSPLSLPVTPGEPASISCRSSQSLLYGNGYNYLDWYLQKPGHSPQLLIYLGSNRGSGVPDRFSGSGSGTDFTLKISRVEAEDVGIYYCMQTLQTPFTFGPGTKMYIK
# B7: 8D12-1 (antibody, V domains shown)
# VH: QVQLVESGGGVVQPGRSLRLSCAASGFTFSRYGIHWVRQAPGKGLEWVAVISYDGSDEYYVDSVKGRFSISRDNSKNTLYLQMNSLRPADSAVYYCVKGDLELGFDYWGQGTLVTVSS
# VL: DIVMTQAAPSIPVIPGESVSMSCRSSKSLLYSNGHTYVYWFVQRPGQSPQLLIYRMSNLASGVPDRFSGSGSGTAFTLRISRVEAEDVGVYYCMQNLEFPLTFGAGTKLELK
# notes: probably the same antibody as 8D12
# B8: 4E3-7 (antibody, V domains shown)
# VH: EVQLLESGGGLVQPGGSLRLSCVASRFTFSSNAMSWVRQAPGTGLEWVSAITGSGSRTYYADSVKGRFTISRDNSKNTVYLQMNSLRGEDTAVYYCAKDQGGTWNYGDFDYWGQGTLVTVSS
# VL: B4 VL with M13V, I58L, E70D, L104V
# B9: 4B9 (antibody, V domains shown)
# VH: B5 VH
# VL: B4 VL with M13V, S30D, A34V, A43V, N93K, L104V
# B10: 21-B9 (antibody, V domains shown)
# VH: B2 VH with I30S, T31N, Y32S, S33N, I53T, H54Y, H55Y, S58T, T83K, M120T
# VL: B1 VL with A1D, M4L, G28D, T72S, I75L, Y87F, N92H, S93I, Y96W, V104L
# B11: 21-E9 (antibody, V domains shown)
# VH: EVQLVQLGPGLVKPSETLSLTCTVSGGSISNSNYYWGWIRQPPGKGLEWIGTTYYSGTTYYNPSLKSRVTISVDTSKNQFSLKLSSVTAADTAVYYCARDYYDSSGYYYNWFDPWGQGTTVTVSS
# VL: B1 VL with G28D, T72S, I75L, Y87F, N92H, S93I, Y96W
# B12: 3A4-3 (antibody, V domains shown)
# VH: QVQLVQSGGGLVKPGGSLRLSCAASGFIFNTYTMNWVRQAPGKGLEWVSSITSRGTYIFYSDSLKGRFTISRDNANNSLFLQMNSLRVEDTAVYYCSRDRGYTFGPDYWGQGTLVTVSS
# VL: DIQMTQSPSSLSASVGDRVTITCRASQDIRNDLGWYQQKPGKAPKGLIYAASSLQSGVPSRFSGSGSGTEFTLTISSLQPEDFATYHCLHYDFHPRTFGQGTKVEIK
# B13: 4G3-25 (antibody, V domains shown)
# VH: QVQLVESGGGVVQPGRSLRLSCVVSGFNFSRNGIHWVRQAPGKGLEWVAVISYDGRNKFYVESVKGRFTISRDNSKNTLYLQMNSLRVEDTAVYYCAKSSIGGFFEYWGQGTLVTVSS
# VL: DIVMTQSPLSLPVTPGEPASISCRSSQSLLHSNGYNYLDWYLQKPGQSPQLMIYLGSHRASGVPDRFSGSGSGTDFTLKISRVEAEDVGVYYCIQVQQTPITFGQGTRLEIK
# B14: 1H4-5 (antibody, V domains shown)
# VH: QVQLVESGGDVVQPGRSLRLSCTASGFTFSSYGMHWVRQAPGRGLEWVAVISFDGKNKYYADSVKGRFTVSRDNSKNTLFLQMNSLRAEDTALYYCAKRIAATGYYYFYGLDVWGQGTTVTVSS
# VL: B4 VL with V3M, M13V, A19G, T56S, I75V, L104V
# B15: 9B4-3 (antibody, V domains shown)
# VH: EVQLLESGGGLVQPGESLRLSCAASGFTFSSYAMNWVRQAPGKGLEWVSTISGSGGYIYYADSVKGRFTISRDNSKNTLYLQMNSLRAEDTAVYFCAKDSRYNWNYGNFDYWGQGTLVTVSS
# VL: EIVMTQSPATLSVSPGERATLSCRASQNVSSNLAWNKQKPGQAPRLLIYATSTRATGVPARFSASGSGTDFALTINSLQSEDFAVYYCQQYNNWPLTFGGGTKVEIK
# B16: 3E2-1 (antibody, V domains shown)
# VH: QVQLQQWGAGLLKPSETLSLTCAVYGGSFSGYYWSWIRQPPGKGLEWIGEINHSGNTNYNPSLKSRVTISVDTSKNQFSLKLNSVTAADTAVYYCARREATVTPYFDYWGQGTLVTVSS
# VL: DIQLTQSPSFLSASVGDRVTITCWASQGISSYLAWYQQKPGKAPKLLIYAASTLQSGVPSRFSGSGSGTEFTLTISSLQPEDFATYYCQQLNSYPLTFGGGTKVEIK
# Molecular target: T1, Human GDF8 homodimer (mature human …)
# Assay: cell-based or functional assay
row,Binder,"IC50, GDF8-inducible luciferase, A204/Smad2 cells, 0.8 nM GDF8 [nM]"
1,B1,> 20
2,B2,2.2
3,B3,10.5
4,B4,> 20
5,B5,1.8
6,B6,> 20
7,B7,2.4
8,B8,10.4
9,B9,0.47
10,B10,0.62
11,B11,0.99
12,B12,3.1
13,B13,> 25

# Molecular target: T2, hGDF11 homodimer
# Assay: cell-based or functional assay
row,Binder,"IC50, GDF11-inducible luciferase, A204/Smad2 cells, 0.8 nM GDF11 [nM]"
1,B1,> 25
2,B2,22.4
3,B3,> 25
4,B4,> 25
5,B5,> 25
6,B6,> 25
7,B7,> 25
8,B8,> 25
9,B9,> 25
10,B10,1.2
11,B11,1.2
12,B12,> 20
13,B13,> 25

# Molecular target: T1, Human GDF8 homodimer (mature human …)
# Assay: SPR, antibody captured, 25 nM antigen
# Method: (§1) Equilibrium dissociation constants (KD values) for antigen binding to selected antibodies were determined by surface kinetics using a real-time biosensor surface plasmon resonance assay (BIACORE™ 2000). Each selected antibody was captured on either a goat anti-mouse IgG polyclonal antibody surface or a goat anti-hFc polyclonal antibody (Jackson Immuno Research Lab) surface created through direct chemical coupling to a BIACORE™ chip to form a captured antibody surface. Human GDF8 homodimer, hGDF11 homodimer, or hGDF5 homodimer at 25 nM was injected over the captured antibody surfaces, and antigen-antibody binding and dissociation were monitored in real time at room temperature. Kinetic analysis was performed to calculate KD, dissociation rate constants (kd), association rate constants (ka) and half-life of antigen/antibody complex dissociation (Table 2).
Binder,Kd [nM],T1/2 [min]
B1,1.23,34
B2,0.26,148
B3,0.25,71
B4,0.86,39
B5,0.62,56
B6,0.5,38
B7,0.66,95
B8,1.89,27
B9,0.55,55
B10,0.12,126
B11,0.14,155
B12,1.07,137
B13,3.9,25
B14,0.95,54
B15,1.18,50
B16,2.55,45

# Molecular target: T2, hGDF11 homodimer
# Assay: SPR, antibody captured, 25 nM antigen
# Method: as §1
Binder,Kd [nM],T1/2 [min]
B1,1.09,21
B2,0.12,87
B3,0.73,50
B4,2.08,2
B5,0.44,30
B7,1.87,23
B8,1.33,29
B9,1.09,34
B10,0.064,133
B11,0.07,221
B12,0.51,71
B13,1.41,39
B14,1.48,24
B15,1.08,32
B16,0.7,79
